Measurements as given in the supplement of paper PMC10065799, “High-throughput profiling of sequence recognition by tyrosine kinases and SH2 domains using bacterial peptide display” (eLife, 2023).

What was measured:
[1] = molecular target: EPHB2 (UniProt P29323); test: phosphorylation enrichment, bacterial display (enrichment ratio); higher = better substrate or ligand; peptides without Tyr show the background
[2] = molecular target: MERTK (UniProt Q12866); test: as above
[3] = molecular target: FGFR1 (UniProt P11362); test: as above
[4] = system: AncSZ; test: as above
[5] = system: Fer (mouse); test: as above
[6] = molecular target: EPHB1 (UniProt P54762); test: as above
[7] = molecular target: Fes (UniProt P07332); test: as above
[8] = molecular target: Hck (UniProt P08631); test: as above
[9] = molecular target: FGFR3 (UniProt P22607); test: as above
[10] = system: c-Abl (mouse); test: as above
[11] = molecular target: Jak2 (UniProt O60674); test: as above
[12] = molecular target: Fyn (UniProt P06241); test: as above
[13] = system: c-Src; test: as above
[14] = molecular target: Grb2 SH2 (UniProt P62993); test: SH2 binding enrichment of the phosphorylated peptide, bacterial display (enrichment ratio); higher = better substrate or ligand; peptides without Tyr show the background
[15] = molecular target: c-Src SH2; test: as above
[16] = molecular target: SHP2-C SH2; test: as above
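For SH2 binding enrichment of the phosphorylated peptide, bacterial display in this document: peptide library displayed on the E. coli surface as eCPX fusions, selected cells deep-sequenced, score is each peptide's frequency after selection divided by its frequency in the input.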
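For phosphorylation enrichment, bacterial display in this document: 11-residue human phosphosite peptides and single-mutation variants displayed on the E. coli surface, counted by deep sequencing, each peptide's frequency after selection divided by its frequency in the unselected input library; frequency after pTyr selection over input frequency; kinase dosed for 20-30% of maximal phosphorylation in three min.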

FGFR3, sequence (P22607 whole entry, looked up): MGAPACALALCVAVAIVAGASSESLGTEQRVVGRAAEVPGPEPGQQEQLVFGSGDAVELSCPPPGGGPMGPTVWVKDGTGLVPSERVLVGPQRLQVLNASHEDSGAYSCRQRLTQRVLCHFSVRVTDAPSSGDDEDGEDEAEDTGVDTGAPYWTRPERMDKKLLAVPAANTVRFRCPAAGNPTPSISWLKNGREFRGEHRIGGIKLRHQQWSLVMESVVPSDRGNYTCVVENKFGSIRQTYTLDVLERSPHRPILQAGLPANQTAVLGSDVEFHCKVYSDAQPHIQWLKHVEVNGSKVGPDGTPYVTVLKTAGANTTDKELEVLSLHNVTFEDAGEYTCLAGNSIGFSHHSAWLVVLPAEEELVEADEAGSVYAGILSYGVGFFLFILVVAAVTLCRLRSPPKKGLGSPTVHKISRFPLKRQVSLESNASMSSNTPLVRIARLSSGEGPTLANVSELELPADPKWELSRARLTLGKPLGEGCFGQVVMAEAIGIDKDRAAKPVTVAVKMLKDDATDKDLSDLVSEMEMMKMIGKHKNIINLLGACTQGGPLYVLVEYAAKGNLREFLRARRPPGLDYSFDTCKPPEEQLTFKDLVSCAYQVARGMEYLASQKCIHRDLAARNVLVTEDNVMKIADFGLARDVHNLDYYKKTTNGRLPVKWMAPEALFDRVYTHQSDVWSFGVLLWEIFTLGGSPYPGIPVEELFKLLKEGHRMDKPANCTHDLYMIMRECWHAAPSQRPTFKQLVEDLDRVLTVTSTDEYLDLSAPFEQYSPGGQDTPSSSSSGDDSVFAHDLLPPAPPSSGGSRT
EPHB1, sequence (P54762 whole entry, looked up): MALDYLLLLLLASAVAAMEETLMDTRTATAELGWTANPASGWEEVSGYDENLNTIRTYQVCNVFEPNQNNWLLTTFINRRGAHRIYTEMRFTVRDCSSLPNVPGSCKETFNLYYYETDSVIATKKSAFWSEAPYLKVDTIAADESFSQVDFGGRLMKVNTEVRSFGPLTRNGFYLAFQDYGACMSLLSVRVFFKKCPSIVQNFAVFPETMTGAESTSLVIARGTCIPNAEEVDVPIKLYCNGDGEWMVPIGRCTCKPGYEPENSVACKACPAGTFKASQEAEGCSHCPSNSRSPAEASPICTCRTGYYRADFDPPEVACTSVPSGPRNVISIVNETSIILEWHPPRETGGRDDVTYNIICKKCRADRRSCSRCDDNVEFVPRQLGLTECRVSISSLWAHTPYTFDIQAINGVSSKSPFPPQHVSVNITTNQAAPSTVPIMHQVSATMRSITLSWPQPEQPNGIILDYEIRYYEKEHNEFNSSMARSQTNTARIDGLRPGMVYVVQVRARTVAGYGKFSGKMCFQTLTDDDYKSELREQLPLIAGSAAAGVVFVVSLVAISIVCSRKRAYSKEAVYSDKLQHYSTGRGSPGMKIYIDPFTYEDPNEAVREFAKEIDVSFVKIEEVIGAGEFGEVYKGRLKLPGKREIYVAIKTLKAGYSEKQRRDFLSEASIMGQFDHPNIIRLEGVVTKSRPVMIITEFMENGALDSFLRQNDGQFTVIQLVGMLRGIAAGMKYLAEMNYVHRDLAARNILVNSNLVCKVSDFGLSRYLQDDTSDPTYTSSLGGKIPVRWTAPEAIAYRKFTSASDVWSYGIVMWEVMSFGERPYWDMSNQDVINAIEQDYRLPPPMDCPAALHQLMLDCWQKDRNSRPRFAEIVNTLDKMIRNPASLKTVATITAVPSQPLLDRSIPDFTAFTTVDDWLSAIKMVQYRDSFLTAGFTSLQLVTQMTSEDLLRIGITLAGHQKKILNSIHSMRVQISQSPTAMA
Jak2, sequence (O60674 whole entry, looked up): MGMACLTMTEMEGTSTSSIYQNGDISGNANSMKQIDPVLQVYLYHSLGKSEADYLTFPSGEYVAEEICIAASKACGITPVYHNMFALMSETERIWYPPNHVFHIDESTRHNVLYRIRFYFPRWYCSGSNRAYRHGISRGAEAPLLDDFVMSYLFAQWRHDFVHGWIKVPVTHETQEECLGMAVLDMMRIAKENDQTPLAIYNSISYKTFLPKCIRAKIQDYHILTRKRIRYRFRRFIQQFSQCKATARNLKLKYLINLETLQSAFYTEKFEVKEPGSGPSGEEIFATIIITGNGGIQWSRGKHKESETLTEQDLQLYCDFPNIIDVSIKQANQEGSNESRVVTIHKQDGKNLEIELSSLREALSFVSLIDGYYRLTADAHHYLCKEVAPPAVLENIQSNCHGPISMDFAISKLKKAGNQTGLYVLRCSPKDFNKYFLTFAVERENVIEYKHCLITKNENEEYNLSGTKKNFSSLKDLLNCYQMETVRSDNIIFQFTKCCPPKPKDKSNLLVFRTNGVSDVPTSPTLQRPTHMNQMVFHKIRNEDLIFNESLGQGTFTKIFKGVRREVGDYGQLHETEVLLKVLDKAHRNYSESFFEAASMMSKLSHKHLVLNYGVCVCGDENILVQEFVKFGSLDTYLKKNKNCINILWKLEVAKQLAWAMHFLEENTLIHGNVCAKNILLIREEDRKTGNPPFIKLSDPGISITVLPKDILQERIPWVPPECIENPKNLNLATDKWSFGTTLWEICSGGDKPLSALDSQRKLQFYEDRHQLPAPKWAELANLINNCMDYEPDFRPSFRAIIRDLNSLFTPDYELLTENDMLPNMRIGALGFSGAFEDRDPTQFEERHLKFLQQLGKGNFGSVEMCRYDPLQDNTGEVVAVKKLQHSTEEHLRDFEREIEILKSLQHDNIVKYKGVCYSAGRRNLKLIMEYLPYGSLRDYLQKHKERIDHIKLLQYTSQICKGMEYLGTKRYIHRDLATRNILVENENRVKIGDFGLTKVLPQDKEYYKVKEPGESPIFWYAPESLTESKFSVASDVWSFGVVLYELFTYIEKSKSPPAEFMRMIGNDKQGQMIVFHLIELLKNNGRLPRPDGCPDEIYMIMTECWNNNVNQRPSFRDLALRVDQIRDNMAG
Fyn, sequence (P06241 whole entry, looked up): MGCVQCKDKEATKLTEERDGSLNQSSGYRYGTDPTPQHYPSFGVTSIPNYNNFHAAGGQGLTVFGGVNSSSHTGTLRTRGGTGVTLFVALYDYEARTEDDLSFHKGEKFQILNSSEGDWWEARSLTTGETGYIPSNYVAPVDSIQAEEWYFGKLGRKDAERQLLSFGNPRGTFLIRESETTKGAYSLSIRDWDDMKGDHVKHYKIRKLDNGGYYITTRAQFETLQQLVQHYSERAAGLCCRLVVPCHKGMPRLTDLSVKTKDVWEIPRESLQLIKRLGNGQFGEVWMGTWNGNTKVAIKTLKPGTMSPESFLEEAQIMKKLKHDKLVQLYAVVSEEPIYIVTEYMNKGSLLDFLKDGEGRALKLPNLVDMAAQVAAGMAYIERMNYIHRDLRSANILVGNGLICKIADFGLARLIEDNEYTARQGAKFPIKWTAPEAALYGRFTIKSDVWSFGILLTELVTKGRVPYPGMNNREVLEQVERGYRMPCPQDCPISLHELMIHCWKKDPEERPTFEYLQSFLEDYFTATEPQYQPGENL
Hck, sequence (P08631 whole entry, looked up): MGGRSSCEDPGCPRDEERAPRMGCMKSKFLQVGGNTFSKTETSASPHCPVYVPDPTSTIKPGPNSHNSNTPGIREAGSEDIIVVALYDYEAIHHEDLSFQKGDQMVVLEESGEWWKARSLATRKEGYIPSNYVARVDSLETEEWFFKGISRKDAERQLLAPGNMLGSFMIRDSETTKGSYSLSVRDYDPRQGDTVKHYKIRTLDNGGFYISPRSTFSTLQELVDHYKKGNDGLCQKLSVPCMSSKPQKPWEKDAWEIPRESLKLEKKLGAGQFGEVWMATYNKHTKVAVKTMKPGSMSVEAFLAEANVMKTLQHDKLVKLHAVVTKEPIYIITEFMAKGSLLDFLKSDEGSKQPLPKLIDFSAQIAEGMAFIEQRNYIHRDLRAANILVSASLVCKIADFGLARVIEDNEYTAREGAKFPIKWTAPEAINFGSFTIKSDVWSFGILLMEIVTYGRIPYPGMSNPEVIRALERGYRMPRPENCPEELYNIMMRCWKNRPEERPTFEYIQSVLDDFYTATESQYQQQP
MERTK, sequence (Q12866 whole entry, looked up): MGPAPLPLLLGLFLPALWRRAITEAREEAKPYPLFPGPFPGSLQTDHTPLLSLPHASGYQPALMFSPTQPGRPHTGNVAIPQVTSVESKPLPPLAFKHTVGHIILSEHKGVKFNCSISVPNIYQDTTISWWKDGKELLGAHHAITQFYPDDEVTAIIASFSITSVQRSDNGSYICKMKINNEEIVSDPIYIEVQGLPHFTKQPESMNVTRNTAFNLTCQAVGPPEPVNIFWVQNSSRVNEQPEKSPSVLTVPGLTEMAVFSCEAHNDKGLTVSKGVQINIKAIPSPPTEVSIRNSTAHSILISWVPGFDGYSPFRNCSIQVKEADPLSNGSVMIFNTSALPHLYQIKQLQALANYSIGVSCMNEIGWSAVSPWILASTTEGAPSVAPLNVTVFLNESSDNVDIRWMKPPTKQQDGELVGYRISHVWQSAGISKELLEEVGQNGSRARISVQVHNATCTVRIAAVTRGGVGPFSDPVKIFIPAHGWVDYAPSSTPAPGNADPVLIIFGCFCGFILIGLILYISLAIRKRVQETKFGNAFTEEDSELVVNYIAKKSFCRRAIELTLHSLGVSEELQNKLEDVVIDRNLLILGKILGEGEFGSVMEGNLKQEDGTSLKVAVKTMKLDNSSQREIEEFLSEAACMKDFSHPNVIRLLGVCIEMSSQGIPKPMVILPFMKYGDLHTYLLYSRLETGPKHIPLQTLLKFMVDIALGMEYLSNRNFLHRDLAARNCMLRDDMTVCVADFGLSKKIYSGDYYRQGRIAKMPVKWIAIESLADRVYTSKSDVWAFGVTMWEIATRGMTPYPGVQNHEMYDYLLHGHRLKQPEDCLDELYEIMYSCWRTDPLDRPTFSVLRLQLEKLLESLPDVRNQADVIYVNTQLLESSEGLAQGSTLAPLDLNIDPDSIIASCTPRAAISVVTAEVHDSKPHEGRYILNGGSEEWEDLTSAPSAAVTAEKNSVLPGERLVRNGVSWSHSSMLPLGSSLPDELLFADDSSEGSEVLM

Sequence | SH2 binding enrichment [14] | SH2 binding enrichment [15] | SH2 binding enrichment [16] | phosphorylation enrichment [1] | phosphorylation enrichment [2] | phosphorylation enrichment [3] | phosphorylation enrichment [4] | phosphorylation enrichment [5] | phosphorylation enrichment [6] | phosphorylation enrichment [7] | phosphorylation enrichment [8] | phosphorylation enrichment [9] | phosphorylation enrichment [10] | phosphorylation enrichment [11] | phosphorylation enrichment [12] | phosphorylation enrichment [13]
ISKKIYDPIHD [CTNNA3_Y614_T616P] | 0.691 | 0.426 | 0.648 | 0.475 | 0.455 | 0.436 | 0.57 | 0.446 | 0.48 | 0.694 | 0.731 | 0.529 | 0.445 | 0.516 | 0.636 | 0.541
IVAREYFSKAD [CAMK2B_Y107_E110K_YF] | 0.787 | 0.473 | 0.604 | 0.437 | 0.358 | 0.434 | 0.627 | 0.368 | 0.421 | 0.693 | 0.427 | 0.402 | 0.448 | 0.542 | 0.469 | 0.342
IVLEKYKLLPE [DHFR_Y157_D153V] | 0.922 | 0.575 | 0.907 | 0.638 | 0.386 | 0.596 | 0.843 | 0.45 | 0.53 | 1.07 | 0.458 | 0.752 | 0.676 | 0.809 | 0.453 | 0.346
KANEFYPVVLI [ADAMTS18_Y765_YF] | 0.663 | 0.388 | 0.421 | 0.48 | 0.451 | 2.76 | 1.03 | 0.82 | 0.448 | 1.15 | 0.412 | 1.97 | 0.68 | 1.06 | 0.482 | 0.506
KCLAVYQAGAR [APOE_Y180_R176C] | 0.841 | 0.677 | 0.628 | 0.646 | 0.478 | 0.47 | 0.737 | 0.487 | 0.597 | 0.742 | 0.812 | 0.557 | 0.734 | 0.744 | 0.646 | 2.45
KDGNGYISVAE [CALM3_Y100_A103V] | 0.685 | 2.5 | 0.746 | 0.485 | 0.418 | 0.404 | 0.771 | 0.442 | 0.362 | 0.859 | 0.462 | 0.473 | 0.679 | 0.671 | 0.407 | 0.598
KGEDFYFVTCH [FHL1_Y149_C150Y_YF] | 0.743 | 0.392 | 0.345 | 0.788 | 0.491 | 0.62 | 1.26 | 0.588 | 0.709 | 1.57 | 0.503 | 0.946 | 0.9 | 1.49 | 0.451 | 0.468
KKARAYGPGIE [FLNA_Y287] | 0.693 | 0.408 | 0.855 | 0.335 | 0.399 | 0.323 | 0.576 | 0.38 | 0.328 | 0.446 | 0.405 | 0.343 | 0.468 | 0.418 | 0.357 | 0.392
KKCTRYIDCDL [ASPA_Y64] | 0.932 | 0.875 | 0.83 | 0.434 | 0.421 | 0.623 | 0.798 | 0.423 | 0.428 | 0.852 | 0.41 | 0.575 | 0.757 | 0.782 | 0.389 | 0.429
KLADIYQAELR [GFAP_Y116_V115I] | 1.01 | 0.541 | 0.561 | 0.595 | 0.709 | 0.419 | 0.789 | 0.502 | 0.59 | 0.839 | 0.799 | 0.582 | 0.674 | 0.813 | 0.795 | 1.62
KLADMYGGGED [CDH1_Y876] | 0.812 | 0.558 | 0.748 | 0.43 | 0.436 | 0.561 | 0.766 | 0.461 | 0.424 | 0.79 | 0.463 | 0.509 | 0.455 | 0.732 | 0.484 | 0.42
KLASTYREAAT [DEAF1_Y483_H479L] | 0.787 | 0.418 | 0.508 | 0.337 | 0.344 | 0.352 | 0.353 | 0.267 | 0.343 | 0.494 | 0.318 | 0.351 | 0.432 | 0.309 | 0.371 | 0.273
KLLPEYPGILS [DHFR2_Y163_V166I] | 0.884 | 0.528 | 0.71 | 0.458 | 0.376 | 0.467 | 0.772 | 0.466 | 0.488 | 0.832 | 0.419 | 0.524 | 0.627 | 0.739 | 0.436 | 0.431
KLSCSYSHLSA [C4BPA_Y470_W473L] | 0.897 | 0.631 | 0.734 | 0.588 | 0.58 | 0.574 | 1.15 | 0.55 | 0.535 | 1.21 | 0.513 | 0.742 | 0.782 | 1.06 | 0.572 | 0.584
KLSFSYGQALQ [ALDOB_Y302_R304Q] | 0.861 | 0.475 | 0.703 | 0.564 | 0.437 | 0.503 | 1 | 0.529 | 0.649 | 1.1 | 0.383 | 0.72 | 0.686 | 1.03 | 0.422 | 0.41
KNEVFYQCPDQ [FBXO3_Y223] | 0.783 | 0.526 | 0.523 | 2.03 | 3.49 | 1.26 | 3.2 | 6.47 | 1.04 | 1.55 | 1.69 | 1.49 | 7.94 | 0.941 | 1.03 | 0.985

Now from value to sequence, other results behind:

SH2 binding enrichment [14] | SH2 binding enrichment [15] | SH2 binding enrichment [16] | Sequence | phosphorylation enrichment [1] | phosphorylation enrichment [2] | phosphorylation enrichment [3] | phosphorylation enrichment [4] | phosphorylation enrichment [5] | phosphorylation enrichment [6] | phosphorylation enrichment [7] | phosphorylation enrichment [8] | phosphorylation enrichment [9] | phosphorylation enrichment [10] | phosphorylation enrichment [11] | phosphorylation enrichment [12] | phosphorylation enrichment [13]
0.695 | 0.449 | 0.653 | ISKKRYAGLLF [POLD1_Y809] | 0.471 | 0.466 | 0.57 | 0.539 | 0.307 | 0.415 | 0.507 | 0.519 | 0.467 | 0.52 | 0.658 | 0.448 | 0.462
1.07 | 0.686 | 0.85 | ITVCDYTNPCP [MYD88_Y276_T281P] | 0.482 | 0.333 | 0.443 | 1.49 | 0.396 | 0.561 | 0.829 | 0.354 | 0.551 | 0.551 | 0.689 | 0.428 | 0.943
0.823 | 3.15 | 0.815 | IVRSLYEDPED [VHL_Y185_L188P] | 0.698 | 0.424 | 0.502 | 1.12 | 0.738 | 0.748 | 1.02 | 0.544 | 0.707 | 0.619 | 0.878 | 0.455 | 0.586
0.962 | 5.64 | 0.766 | IVRSPYEDLED [VHL_Y185_L184P] | 0.682 | 0.533 | 0.571 | 1.31 | 0.562 | 0.58 | 1.16 | 0.528 | 0.704 | 0.748 | 1.35 | 0.506 | 0.531
0.616 | 0.553 | 0.649 | IYGASYVPFAA [RBM47_Y541] | 0.861 | 6.3 | 0.78 | 0.701 | 7.91 | 0.67 | 0.687 | 7.75 | 0.708 | 9.26 | 2.11 | 10 | 6.94
0.838 | 0.454 | 0.899 | KASVDYIRKLQ [MITF_Y360] | 0.409 | 0.32 | 0.364 | 0.765 | 0.351 | 0.393 | 0.651 | 0.351 | 0.482 | 0.503 | 0.589 | 0.336 | 0.345
0.794 | 0.532 | 0.649 | KDDEKYLDVSR [MTM1_Y260_I264S] | 0.556 | 0.423 | 0.473 | 0.951 | 0.442 | 0.521 | 1.09 | 0.457 | 0.655 | 0.824 | 0.973 | 0.456 | 0.433
1.05 | 0.572 | 1.07 | KDQGIYEDFVE [MYL6_Y86_T85I_YF] | 0.949 | 0.614 | 0.688 | 1.45 | 1.82 | 0.831 | 1.49 | 1.07 | 0.901 | 0.932 | 1.3 | 2.6 | 2.84
0.858 | 0.408 | 0.616 | KEAQVYQAFKL [SUCLG2_Y343] | 0.566 | 2.84 | 0.516 | 1.1 | 9.27 | 1.07 | 1.05 | 9.46 | 0.603 | 15.3 | 0.801 | 11.3 | 7.32
0.837 | 7.21 | 0.993 | KGYCGYSYDDI [TMEM230_Y110_R108C] | 0.536 | 0.607 | 0.927 | 1.35 | 0.89 | 0.557 | 0.972 | 0.563 | 0.823 | 0.621 | 0.891 | 0.468 | 0.862
1.02 | 1.23 | 0.822 | KILGTYYETGS [PAX2_Y72_R71T] | 0.641 | 1.01 | 1.85 | 0.875 | 0.466 | 0.66 | 0.936 | 0.818 | 1.61 | 0.592 | 0.653 | 0.769 | 1.29
0.97 | 0.823 | 0.727 | KIPGRYYETGS [PAX2_Y72_L69P] | 0.424 | 0.573 | 0.503 | 0.56 | 0.588 | 0.445 | 0.713 | 0.388 | 0.539 | 0.689 | 0.637 | 0.496 | 0.476
0.912 | 0.522 | 0.703 | KLIETYSSKNY [PLP1_Y50_F51S] | 0.759 | 0.539 | 0.584 | 0.649 | 0.44 | 0.684 | 0.838 | 0.536 | 0.619 | 0.591 | 0.653 | 0.429 | 0.543
0.854 | 0.668 | 0.7 | KMKGDYFCFLA [YWHAG_Y130_R132C_YF] | 1.56 | 2.32 | 11.9 | 2.31 | 0.548 | 2.48 | 1.18 | 1 | 9.56 | 2.24 | 6.97 | 2.13 | 2.94
0.888 | 0.891 | 0.87 | KMKGDYYRSLA [YWHAG_Y130_Y133S] | 0.401 | 0.434 | 0.718 | 0.54 | 0.325 | 0.369 | 0.562 | 0.444 | 0.513 | 0.541 | 0.616 | 0.388 | 0.389
1.63 | 1.24 | 1.3 | KMKGEYFRFLA [YWHAG_Y130_D129E_YF] | 0.567 | 0.598 | 3.77 | 0.791 | 0.7 | 0.678 | 0.93 | 0.783 | 2.58 | 1.4 | 2.04 | 1.75 | 2.76
1.12 | 1.65 | 0.973 | KMMGRYEMFAR [UPB1_Y362_T359M_YF] | 0.393 | 0.393 | 0.363 | 0.538 | 0.298 | 0.327 | 0.599 | 0.402 | 0.445 | 0.464 | 0.453 | 0.368 | 0.34
